We go through 1 protein from PMC3124622.

Substrate in this data set: Nc1nc2nc[nH]c2c(=O)[nH]1
Put plainly: purified protein, by the assay type. It counts as biochemical, E. coli. To be noted: other: wild-type, guanine as substrate, 20 μM tRNA, 37 °C, pH 7.3.

One may read the kcat as the number of substrate molecules converted per active site and unit of time at saturation.

B1: E. coli TGT Wild-Type (Escherichia coli K-12) (protein)
chain: MKFELDTTDGRARRGRLVFDRGVVETPCFMPVGTYGTVKGMTPEEVEATGAQIILGNTFHLWLRPGQEIMKLHGDLHDFMQWKGPILTDSGGFQVFSLGDIRKITEQGVHFRNPINGDPIFLDPEKSMEIQYDLGSDIVMIFDECTPYPADWDYAKRSMEMSLRWAKRSRERFDSLGNKNALFGIIQGSVYEDLRDISVKGLVDIGFDGYAVGGLAVGEPKADMHRILEHVCPQIPADKPRYLMGVGKPEDLVEGVRRGIDMFDCVMPTRNARNGHLFVTDGVVKIRNAKYKSDTGPLDPECDCYTCRNYSRAYLHHLDRCNEILGARLNTIHNLRYYQRLMAGLRKAIEEGKLESFVTDFYQRQGREVPPLNVD
Turning to B1, the Km was 0.35 (0.03) μM and the kcat was 0.00629 s⁻¹.
